Values joined by “and” are separate entries in the source; they are usually repeats but may differ in a detail not shown here. Equal values may be shown once.
Tests used:
Assay in all cases: cell-based or functional assay
[1] = biological target: Env of HIV isolate CNE8 (clade AE) (HIV)
[2] = biological target: Env of HIV isolate 6838.v1.c35 (clade C) (HIV)
[3] = biological target: HIV Env of isolate 3873.v1.c24 (HIV)
[4] = biological target: Env of HIV isolate A03349M1.vrc4a (clade D) (HIV)
[5] = biological target: Env of HIV isolate CNE58 (clade C in Table 7) (HIV)
[6] = biological target: Env of HIV isolate 6785.v5.c14 (clade C) (HIV)
[7] = biological target: Env of HIV isolate BJOX025000.01.1 (clade AE) (HIV)
[8] = biological target: Env of HIV isolate C3347.c11 (clade AE) (HIV)
[9] = biological target: HIV Env of isolate ZM109F.PB4 (HIV)
[10] = biological target: HIV Env of isolate 246F_C1G (HIV)
[11] = biological target: HIV Env of isolate CNE52 (HIV)
[12] = biological target: HIV Env of isolate SC05_8C11_2344 (HIV)
[13] = biological target: HIV Env of isolate 6535.3 (HIV)
[14] = biological target: HIV Env of isolate AC10.0.29 (HIV)
[15] = biological target: HIV Env of isolate Ce1176_A3 (HIV)
[16] = biological target: HIV Env of isolate Du172.17 (HIV)
[17] = biological target: HIV Env of isolate 62357_14_D3_4589 (HIV)
[18] = biological target: HIV Env of isolate CAP210.2.00.E8 (HIV)
[19] = biological target: HIV Env of isolate ZM247v1(Rev-) (HIV)
[20] = biological target: HIV Env of isolate Q23.17 (HIV)
[21] = biological target: HIV Env of isolate TRJO4551.58 (HIV)
[22] = biological target: HIV Env of isolate ZM249M.PL1 (HIV)
[23] = biological target: HIV Env of isolate T278-50 (HIV)
[24] = biological target: HIV Env of isolate 3301.v1.c24 (HIV)
[25] = biological target: HIV Env of isolate 6240_08_TA5_4622 (HIV)
[26] = biological target: HIV Env of isolate 6041.v3.c23 (HIV)
[27] = biological target: HIV Env of the 113-member cross-clade virus panel (Table 6)
[28] = biological target: HIV Env of isolate 6540.v4.c1 (HIV)
[29] = biological target: HIV Env of isolate ZM135M.PL10a (HIV)
[30] = biological target: HIV Env of isolate P0402_C2_11 (HIV)
[31] = biological target: HIV Env of isolate WEAU_d15_410_5017 (HIV)
[32] = biological target: HIV Env of isolate 6952.v1.c20 (HIV)
[33] = biological target: HIV Env of isolate RHPA4259.7 (HIV)
[34] = biological target: HIV Env of isolate X1193_c1 (HIV)
[35] = biological target: HIV Env of isolate T211-9 (HIV)
[36] = biological target: HIV Env of isolate CAP45.2.00.G3 (HIV)
[37] = biological target: HIV Env of isolate TRO.11 (HIV)
[38] = biological target: HIV Env of isolate T255-34 (HIV)
[39] = biological target: HIV Env of isolate CAAN5342.A2 (HIV)
[40] = biological target: HIV Env of isolate Ce1172_H1 (HIV)
[41] = biological target: HIV Env of isolate 1054_07_TC4_1499 (HIV)
[42] = biological target: HIV Env of isolate 1006_11_C3_1601 (HIV)
[43] = biological target: HIV Env of isolate 263-8 (HIV)
[44] = biological target: HIV Env of isolate P1981_C5_3 (HIV)
[45] = biological target: HIV Env of isolate 0330.v4.c3 (HIV)
[46] = biological target: HIV Env of isolate BJOX028000.10.3 (HIV)
[47] = biological target: HIV Env of isolate 3103.v3.c10 (HIV)
[48] = biological target: HIV Env of isolate Ce704809221_1B3 (HIV)
[49] = biological target: HIV Env of isolate REJO4541.67 (HIV)
[50] = biological target: HIV Env of isolate 1012_11_TC21_3257 (HIV)
[51] = biological target: HIV Env of isolate 0815.v3.c3 (HIV)

B1: ePGT121.18 (ePGT121.18.H1 VH and ePGT121.17.L1 VL) (antibody, V domains shown)
VH: QMQLQESGPGLVKPGETLSLTCSVSGASISSSYWSWLRETPGKGLEWIGYTHHSGDTNYAPSLKSRVHLGLHPSKNQVSLSLTSVTAADTAVYYCARTLHGRRIYGVVAFNEYYTYFYWPTWGKGTQVTVSS
VL: SDISVAPGETVRITCGGESIGSRAVQWYQHRPGQAPRLIIYNNQDRPPGIPERFSGSPDIDFGTTATLTISNVEAGDEATYYCHIWDSRRPTNWELGPGTTLTVL
[1]
  IC50, pseudovirus neutralization: > 50 µg/mL
[2]
  IC50, pseudovirus neutralization: 0.386 µg/mL
[3]
  IC80, pseudovirus neutralization (M1): 6 ng/mL
  IC80, pseudovirus neutralization (M2): 0.011 µg/mL
[4]
  IC50, pseudovirus neutralization: 2 ng/mL
[5]
  IC50, pseudovirus neutralization: 0.016 µg/mL
[6]
  IC50, pseudovirus neutralization: 2 ng/mL
[7]
  IC50, pseudovirus neutralization: > 50 µg/mL
[8]
  IC50, pseudovirus neutralization: > 50 µg/mL

B2: ePGT121.15.H2.L1 (antibody, V domains shown)
VH: QMQLQESGPGLVKPGETLSLTCSVSGASISSSYWSWLRETPGKGLEWIGYTHHSGDTNYAPSLKSRVHLGLHPSKNQVSLSLTSVTAADTAVYYCARTLHGRRIYGVVAFNEWFTYFYWEVWGKGTQVTVSS
VL: SDISVAPGETVRISCGGESIGSRAVQWYQHRAGQAPKLIIYNNQDRPPGIPERFSGSPDIDFGTTATLTITNVEAGDEATYYCHIWDSRRPTNWVFGGGTTLTVL
[9]
  neutralization (Table 6 value): 0.873
[10]
  neutralization (Table 6 value): 0.0024
[11]
  neutralization (Table 6 value): 0.0469
[12]
  neutralization (Table 6 value): 0.00664
[13]
  neutralization (Table 6 value): 0.00104
[14]
  neutralization (Table 6 value): 0.00196
[15]
  neutralization (Table 6 value): 0.00206
[16]
  neutralization (Table 6 value): 0.000836
[17]
  neutralization (Table 6 value): 0.0109
[18]
  neutralization (Table 6 value): 0.0207
[19]
  neutralization (Table 6 value): 0.000909
[20]
  neutralization (Table 6 value): 0.00106
[21]
  neutralization (Table 6 value): 0.00583
[22]
  neutralization (Table 6 value): 0.00837
[23]
  neutralization (Table 6 value): 0.0127
[24]
  neutralization (Table 6 value): 0.00106
[25]
  neutralization (Table 6 value): 0.004
[26]
  neutralization (Table 6 value): 0.275
[27]
  Breadth: 77%
  GeoMean: 0.004
[28]
  neutralization (Table 6 value): 0.652
[29]
  neutralization (Table 6 value): 0.122
[30]
  neutralization (Table 6 value): 0.00193
[31]
  neutralization (Table 6 value): 0.00168
[32]
  neutralization (Table 6 value): 0.000842
[33]
  neutralization (Table 6 value): 0.00156
[34]
  neutralization (Table 6 value): 0.000174
[35]
  neutralization (Table 6 value): 0.00508
[36]
  neutralization (Table 6 value): 9e-06
[37]
  neutralization (Table 6 value): 0.00115
[38]
  neutralization (Table 6 value): 0.00375 and 0.00245
[39]
  neutralization (Table 6 value): 0.00112
[40]
  neutralization (Table 6 value): 0.000582
[41]
  neutralization (Table 6 value): 0.00114
[42]
  neutralization (Table 6 value): 0.00175
[43]
  neutralization (Table 6 value): 0.00351 and 0.00488
[44]
  neutralization (Table 6 value): 0.000449
[45]
  neutralization (Table 6 value): 0.0053
[46]
  neutralization (Table 6 value): 0.00577
[47]
  neutralization (Table 6 value): 0.00436
[48]
  neutralization (Table 6 value): 0.00143
[49]
  neutralization (Table 6 value): 0.435
[50]
  neutralization (Table 6 value): 0.00172
[51]
  neutralization (Table 6 value): 0.000394

B3: ePGT121.18.17 (ePGT121.18.H17 VH and ePGT121.17.L1 VL) (antibody, V domains shown)
VH: QMQLQESGPGLVKPGETLSLTCSVSGASISSSYWSWLRETPGKGLEWIGYTHHSGDTNYAPSLKSRVTIGLDPSKNQVSLSLTSVTAADTAVYYCARTLHGRRIYGVVAFNEYYTYFYWPTWGKGTQVTVSS
VL: SDISVAPGETVRITCGGESIGSRAVQWYQHRPGQAPRLIIYNNQDRPPGIPERFSGSPDIDFGTTATLTISNVEAGDEATYYCHIWDSRRPTNWELGPGTTLTVL
[1]
  IC50, pseudovirus neutralization: > 50 µg/mL
[2]
  IC50, pseudovirus neutralization: 0.576 µg/mL
[3]
  IC80, pseudovirus neutralization: 0.02 µg/mL
[4]
  IC50, pseudovirus neutralization: 9 ng/mL
[5]
  IC50, pseudovirus neutralization: 0.053 µg/mL
[6]
  IC50, pseudovirus neutralization: 5 ng/mL
[7]
  IC50, pseudovirus neutralization: > 50 µg/mL
[8]
  IC50, pseudovirus neutralization: > 50 µg/mL

B4: ePGT121.15 (ePGT121.15.H6 VH and ePGT121.15.L1 VL) (antibody, V domains shown)
VH: QMQLQESGPGLVKPGETLSLTCSVSGASISSSYWSWLRETPGKGLEWIGYTHHSGDTNYAPSLKSRVHLGLHPSKNQVSLSLTSVTAADTAVYYCARTLHGRRIYGVVAFNEFFTYFYWEVWGKGTQVTVSS
VL: SDISVAPGETVRISCGGESIGSRAVQWYQHRAGQAPKLIIYNNQDRPPGIPERFSGSPDIDFGTTATLTITNVEAGDEATYYCHIWDSRRPTNWVFGGGTTLTVL
[1]
  IC50, pseudovirus neutralization: > 50 µg/mL
[2]
  IC50, pseudovirus neutralization: 0.234 µg/mL
[3]
  IC80, pseudovirus neutralization: 0.011 µg/mL
[4]
  IC50, pseudovirus neutralization: 6 ng/mL
[5]
  IC50, pseudovirus neutralization: 0.023 µg/mL
[6]
  IC50, pseudovirus neutralization: 4 ng/mL
[7]
  IC50, pseudovirus neutralization: > 50 µg/mL
[8]
  IC50, pseudovirus neutralization: > 50 µg/mL
